This note sets out measurements from patent publication WO2004074491A2 (dated 2004).

By Kd is commonly meant the constant that tells how readily two partners part at equilibrium. Lower therefore signals higher affinity.

This assay addresses T1, K88 pilus protein antigen (also known as the F4 fimbriae adhesin) (Escherichia coli (enterotoxigenic)).
T1 construct: Used as ELISA coat and as the ligand amine-coupled to the CM5 SPR chip; also called K88 antigen; K88 pili
The experiment in a line: SPR (Biacore), K88 pili coupled to a CM5 chip, purified antibody as analyte. For orientation: In SPR one partner is held on a chip, and binding of the other changes the refractive index at the surface.

T1 sequence (P14190 22-283): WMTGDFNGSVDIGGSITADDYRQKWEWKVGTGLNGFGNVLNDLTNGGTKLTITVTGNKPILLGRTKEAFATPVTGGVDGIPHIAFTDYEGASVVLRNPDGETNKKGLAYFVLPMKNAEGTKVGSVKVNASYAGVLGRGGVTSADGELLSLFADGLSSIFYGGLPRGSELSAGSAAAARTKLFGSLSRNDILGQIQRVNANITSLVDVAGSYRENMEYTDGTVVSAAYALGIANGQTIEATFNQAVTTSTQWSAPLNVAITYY

B1: plant-produced anti-K88 antibody 36/41 with ER retention signal (corn, pTMR554) (antibody)
chain 1: EVQLQQSGPELVKTGASVKISCKASDYSLTDYYMHWVKQSHGESLEWIGYINFYNGATNYNQKFKGKATFTVDTSSSTVYMQFNSLTSEDSAVYYCVREALLRNYAMDYWGQGTSVTVSSAKTTPPSVYPLAPGSAAQTNSMVTLGCLVKGYFPEPVTVTWNSGSLSSGVHTFPAVLQSDLYTLSSSVTVPSSTWPSETVTCNVAHPASSTKVDKKIVPRDCGCKPCICTVPEVSSVFIFPPKPKDVLTITLTPKVTCVVVDISKDDPEVQFSWFVDDVEVHTAQTQPREEQFNSTFRSVSELPIMHQDWLNGKEFKCRVNSAAFPAPIEKTISKTKGRPKAPQVYTIPPPKEQMAKDKVSLTCMITDFFPEDITVEWQWNGQPAENYKNTQPIMDTDGSYFVYSKLNVQKSNWEAGNTFTCSVLHEGLHNHHTEKSLSHSPGKSEKDEL
chain 2: ENVLTQSPAIMSASPGEKVTMTCRASSSVSSRYLHWYQQKSGASPKLWIYSTSNLASGVPARFSGSGSGTSYSLTISSVEAEDAATYYCQQYSGYPWTFGGGTKLEIKRADAAPTVSIFPPSSEQLTSGGASVVCFLNNFYPKDINVKWKIDGSERQNGVLNSWTDQDSKDSTYSMSSTLTLTKDEYERHNSYTCEATHKTSTSPIVKSFNRNECSEKDEL
Regarding B1, the Kd stood at 0.03 nM.

B2: anti-K88 monoclonal IgG1 antibody 36/41 purified from hybridoma cells (antibody)
chain 1: EVQLQQSGPELVKTGASVKISCKASDYSLTDYYMHWVKQSHGESLEWIGYINFYNGATNYNQKFKGKATFTVDTSSSTVYMQFNSLTSEDSAVYYCVREALLRNYAMDYWGQGTSVTVSSAKTTPPSVYPLAPGSAAQTNSMVTLGCLVKGYFPEPVTVTWNSGSLSSGVHTFPAVLQSDLYTLSSSVTVPSSTWPSETVTCNVAHPASSTKVDKKIVPRDCGCKPCICTVPEVSSVFIFPPKPKDVLTITLTPKVTCVVVDISKDDPEVQFSWFVDDVEVHTAQTQPREEQFNSTFRSVSELPIMHQDWLNGKEFKCRVNSAAFPAPIEKTISKTKGRPKAPQVYTIPPPKEQMAKDKVSLTCMITDFFPEDITVEWQWNGQPAENYKNTQPIMDTDGSYFVYSKLNVQKSNWEAGNTFTCSVLHEGLHNHHTEKSLSHSPGK
chain 2: ENVLTQSPAIMSASPGEKVTMTCRASSSVSSRYLHWYQQKSGASPKLWIYSTSNLASGVPARFSGSGSGTSYSLTISSVEAEDAATYYCQQYSGYPWTFGGGTKLEIKRADAAPTVSIFPPSSEQLTSGGASVVCFLNNFYPKDINVKWKIDGSERQNGVLNSWTDQDSKDSTYSMSSTLTLTKDEYERHNSYTCEATHKTSTSPIVKSFNRNEC
Turning to B2, the Kd was determined as 0.03 nM.
